{
  "source": "patent US20230183305A1",
  "about": "“KERATIN BD-11, PREPARATION METHOD THEREFOR AND PHARMACEUTICAL COMPOSITION AND USE THEREOF” (INSTITUTE OF MATERIA MEDICA, CHINESE ACADEMY OF MEDICAL …, priority 2019, published 2023)",
  "key": {"[1]": {"test_system": "tracheal phenol red excretion in ICR mice", "assay": "Expectorant test, phenol red excretion method in mice", "format": "in vivo, mouse", "conditions": "for Phenol red excretion: X±SEM, n=10", "description": "• Animals: male ICR mice; • Drugs and reagents: Mucosolvan (ambroxol hydrochloride tablets), phenol red, sodium bicarbonate, protein BD-11; • Instruments: centrifuge (Sigma-3K15 type), balance (XS105DU type), Microplate tester (BIO-TEK type).\nExperiment grouping: • Solvent control group; • Mucosolvan 30 mg/kg group; • Protein BD-11, 20 mg/kg group, 50 mg/kg group.\nThe animals were fasted and water was taken freely 16 hours before the experiment. Orally administered Mucosolvan and different doses of protein BD-11 (administration volume 10 ml/kg) in groups, and the solvent control group was given the same volume of distilled water. One hour later, 2.5% phenol red solution was injected intraperitoneally. Mice were sacrificed by neck dislocation after 30 minutes. Take a trachea from below the thyroid cartilage to the branch of the trachea, and put the trachea into 3 ml 5% NaHCO3 solution and let it stand for 3 hours. Take 1 ml of the supernatant and centrifuge at 3000 rpm for 5 minutes. Measure and record the absorbance at 546 nm. According to the standard curve of phenol red, the excretion of phenol red was calculated.\nRecord the time point of oral administration, the time point of intraperitoneal injection of 2.5% phenol red solution, and the time point of taking the trachea respectively; The absorbance of each group of samples was measured by the microplate reader at 546 nm, Calculate the excretion of phenol red according to the standard curve of phenol red. Calculate the mean and standard error of the data in each group, and use TTEST to compare the solvent control group with other groups, and P<0.05 is considered as a significant difference.\nGive Mucosolvan (30 mg/kg) and different doses of protein BD-11 (20 mg/kg, 50 mg/kg). One hour later, 2.5% phenol red solution was intraperitoneally injected, and 30 minutes later, the mice were sacrificed by neck dislocation. Take the trachea from below the thyroid cartilage to the branch of the trachea, put the trachea into 3 ml of 5% NaHCO3 solution and let it stand for 3 hours, take 1 ml of supernatant, centrifuge at 3000 rpm for 5 minutes, measure and record the absorbance at 546 nm. According to the standard curve of phenol red, the excretion of phenol red was calculated."}, "[2]": {"test_system": "acetic acid writhing in ICR mice", "assay": "Acetic acid writhing test in ICR mice", "format": "in vivo, mouse", "conditions": "for Writhing incubation period: 0.6% acetic acid i.p.; for Writhing incubation period / Frequency of writhing: n=13; for Frequency of writhing: within 15 minutes", "description": "• Animals: male ICR mice; • Drugs and reagents: aspirin, physiological saline, glacial acetic acid, protein BD-11.\nExperiment grouping: • Model group; • Aspirin 300 mg/kg group; • Protein BD-11, 50 mg/kg group, 200 mg/kg group.\nOne day after the experimental animals adapt to the environment, Aspirin 300 mg/kg, protein BD-11 50 mg/kg, 200 mg/kg were given orally one hour in advance, and the administration volume was 10 ml/kg; Then, 0.6% acetic acid solution was injected intraperitoneally, and the incubation period (seconds) and frequency of writhing in the animal was observed within 15 minutes.\nCalculate the mean and standard error of the data in each group. Compared with the model group by TTEST, P<0.05 was considered as statistically different.\nOne hour after oral administration of aspirin 300 mg/kg and different doses of protein BD-11 (50 mg/kg, 200 mg/kg), 0.6% acetic acid solution was intraperitoneally injected to observe the writhing incubation period and frequency of ICR mice.\n0.6% acetic acid solution was injected into the abdominal cavity of mice, which caused deep and large area and long-term painful stimulation, causing the mice to writhe (the abdomen was contracted into an “S” shape, the trunk and hind legs were stretched, the buttocks were raised and creeping). The incubation time to start writhing and times of writhing in mice were used as the pain response indexs to determine whether the test sample had analgesic effect. […] Compared with the model group, P<0.05, which is statistically significant."}, "[3]": {"test_system": "yeast-induced fever model in SD rats", "assay": "Yeast-induced fever model in SD rats", "format": "in vivo, rat", "conditions": "for Body temperature 2 hours after modeling: 2 h after 20% yeast s.c.; for Body temperature 2 hours after modeling / Body temperature 4 hours after modeling / Body temperature 6 hours after modeling / Body temperature 8 hours after modeling: n=8; for Body temperature 4 hours after modeling: 4 h after 20% yeast s.c.; for Body temperature 6 hours after modeling: 6 h after 20% yeast s.c.; for Body temperature 8 hours after modeling: 8 h after 20% yeast s.c.", "description": "• Animals: 230-260 grams of male SD rats;; • Drugs: yeast (OXOID LP0021), aspirin (SIGMA A2093), protein BD-11; • Instruments: electronic balance (SARTORIUS BP121S type), electronic clinical thermometer (CITIZEN CT-513W type).\nExperiment grouping: • Normal control group; • Model group: yeast fever model; • Positive control group: Aspirin 300 mg/kg group; • Protein BD-11, 10 mg/kg group, 50 mg/kg group.\nPreparation of experimental animals: After the experimental animals adapt to the experimental environment (temperature 22° C.±2° C., relative humidity 50%±2%) for 1 day. Pre-adaptation to measure rectal temperature at 8:00 and 15:00, rats were fasted and water was taken freely 12 h before experiment, and let the animal to empty its feces before measuring the rectal temperature. Apply petroleum jelly to the electronic thermometer probe before each temperature measurement. Insert the rat rectum 2 cm (can be marked at 2 cm to ensure that the depth of each insertion is consistent), and record the body temperature after the reading is stable.\nSubcutaneous injection of dry yeast to replicate rat fever model: The body temperature of the rats was measured before modeling. Qualified rats with a body temperature of 36.2-37.3° C. were selected and randomly divided into groups with 8 rats in each group. After oral administration of aspirin and different doses of protein BD-11, 20% yeast suspension (10 ml/kg) was injected subcutaneously immediately, and the normal control group was injected intraperitoneally with an equal volume of normal saline. The body temperatures of the rats were monitored after 2 hours for a total of 8 hours.\nAccording to the body temperature measured at each time point on the day of the experiment, calculate the mean, standard deviation and standard error of the body temperature of each group of rats. The data of each group was compared with TTEST, and P<0.05 was considered as a significant difference.\nImmediately after oral administration of aspirin (300 mg/kg), protein BD-11 (10 mg/kg, 50 mg/kg), subcutaneous injection of 20% yeast was performed to establish a model. The animal body temperature was monitored at 2 hours, 4 hours, 6 hours, and 8 hours after modeling."}},
  "data": [
    {"molecule": "BD-11: recombinant keratin, amino acid sequence SEQ ID NO:1, expressed in E. coli, band around 59 kD; Example 4 batch tested (protein, listed as Bos taurus) MSRQSTITFQTSSRRGFSTASATTPATSRSRFSSASVTHSPAGSGGLGRISGFGSRSLYNLGGTKRVSISGCGSNFRSGFGGRASSGFGVSGGFGYGGGIGGGHGGCGFSVCPPGGIQEVTVNQSLLTPLNLQIDPNIQRVRKEEREQIKTLNNKFASFIDKVRFLEQQNKVLETKWSLLQEQGTRTVRQSLEPFFEAYITDLRRQLDSITTERGRLDAELRTMQDVVEDFKVRYEDEINKRTAAENEFVALKKDVDAAYLNKVDLEAKANSLTDEINFLQMLFEAELCQMQTRVSDTSVVLSMDNNRSLDLDSIIAEVKAQYEEIANRSRAEAESWYQTKYEELQVTAGQHGDDLRNTKQEISETNRMIQRLRAEIDNVKKQCASLQTAIADAEQRGELALKDARAKLVDLEEALQKSKQDMARLLREYQELMNIKLALDVEIATYRKLLEGEECRLSGEGVSPVNISVVTSTVSSGYGGGSSIGSGSLGLSGGSGCSFMTSGGHSLGGSSFSNSSSRGLGGSGSSFKFVSTTSSSRKSYKH", "values": [
      {"measurement": "Phenol red excretion", "setting": "[1]; BD-11 20 mg/kg oral", "value": "0.670 ± 0.082", "unit": "µg/mL"},
      {"measurement": "Excretion of phenol red vs solvent control group", "setting": "[1]; BD-11 50 mg/kg dose group, P<0.05", "value": "significantly increased the excretion of phenol red"},
      {"measurement": "Phenol red excretion", "setting": "[1]; BD-11 50 mg/kg oral", "value": "0.781 ± 0.043", "unit": "µg/mL"},
      {"measurement": "Expectorant effect (summary)", "setting": "[1]; dose not given", "value": "obvious expectorant effect"},
      {"measurement": "Writhing incubation period", "setting": "[2]; BD-11 50 mg/kg oral", "value": "163.8 ± 8.2", "unit": "s"},
      {"measurement": "Frequency of writhing", "setting": "[2]; BD-11 50 mg/kg oral", "value": "35.0 ± 2.5", "unit": "times"},
      {"measurement": "Effect on number of writhing in mice", "setting": "[2]; BD-11 200 mg/kg dose group, P<0.05 vs model group", "value": "significantly reduce the number of writhing"},
      {"measurement": "Writhing incubation period", "setting": "[2]; BD-11 200 mg/kg oral", "value": "299.9 ± 65.2", "unit": "s"},
      {"measurement": "Frequency of writhing", "setting": "[2]; BD-11 200 mg/kg oral", "value": "23.3 ± 3.1", "unit": "times"},
      {"measurement": "Effect on number of writhing times in mice (summary)", "setting": "[2]; dose not given", "value": "significantly reduce the number of writhing times"},
      {"measurement": "Effect on increase in body temperature (summary)", "setting": "[3]; 2, 4, 6 and 8 hours after modeling, dose not given", "value": "significantly inhibit the increase in body temperature"},
      {"measurement": "Effect on the increase in body temperature of model rats", "setting": "[3]; BD-11 10 mg/kg dose group, most time points P<0.05 vs model group", "value": "strong effect"},
      {"measurement": "Body temperature 2 hours after modeling", "setting": "[3]; BD-11 10 mg/kg oral", "value": "36.7±0.1", "unit": "°C"},
      {"measurement": "Body temperature 4 hours after modeling", "setting": "[3]; BD-11 10 mg/kg oral", "value": "37.0±0.1", "unit": "°C"},
      {"measurement": "Body temperature 6 hours after modeling", "setting": "[3]; BD-11 10 mg/kg oral", "value": "37.4±0.1", "unit": "°C"},
      {"measurement": "Body temperature 8 hours after modeling", "setting": "[3]; BD-11 10 mg/kg oral", "value": "37.3 ±0.1", "unit": "°C"},
      {"measurement": "Body temperature 2 hours after modeling", "setting": "[3]; BD-11 50 mg/kg oral", "value": "36.9 ± 0.2", "unit": "°C"},
      {"measurement": "Body temperature 4 hours after modeling", "setting": "[3]; BD-11 50 mg/kg oral", "value": "37.4 ± 0.1", "unit": "°C"},
      {"measurement": "Body temperature 6 hours after modeling", "setting": "[3]; BD-11 50 mg/kg oral", "value": "37.5 ± 0.1", "unit": "°C"},
      {"measurement": "Body temperature 8 hours after modeling", "setting": "[3]; BD-11 50 mg/kg oral", "value": "37.4 ±0.1", "unit": "°C"},
      {"measurement": "Effect on the increase in body temperature of model rats", "setting": "[3]; different doses of BD-11 (10, 50 mg/kg oral), after modeling", "value": "can inhibit the increase in body temperature of model rats to varying degrees"}
    ]}
  ]
}
